A short description of this series: soluble on expression in E. coli; label from the status in PepcDB or PDB records.
On to “MENYLIDNLDRGILEALMGNARTAYAELAKQFGVSPETIHVRVEKMKQAGIITGARIDVSPKQLGYDVGCFIGIILKSAKDYPSALAKLESLDEVTEAYYTTGHYSIFIKVMCRSIDALQHVLINKIQTIDEIQSTETLIVLQNPIMRTIKP”, for which the “soluble on expression in E. coli” value was “soluble”.

On to “MEPKDTTTNDAFKGFTNTACPFLPCHKGVKREFNCLFCYCPLIAYECPGPYQVYTDKNGLTRKDCTNCTLPHDGYLASWNFIQKWLERPVIWSGAAQTTPPTRRPGRAPGDGDEELEHHHHHH”, for which the “soluble on expression in E. coli” value is listed as “soluble”.

Turning to “MEPPSPVGNPEIPSEIPKNAEKTVYKYIDEQGIEIFIEDPIYVEENGNTMVYGNPYDPTTSSQEIYEEEIVDEEYIFQVDSLPSTSSSSAAAPPPSKRARLIKDGVAYPSNTVLLTNQSLEAKNATFLAKAGARREEKEPKKQIPMINKHGSILNRNLPGMTNMFKVMAESALAKTDEMIKQEAMNNTVEEVEKGRKLDNSSRFGLENEESDQDGQSDTPPPMERLGEADDFQPTTTTFDQWPLYSNRAIDFKGFSTYQKKNYFENWKILSSFKKVFSKNFQFLAKILKFISMRDPHRNSRNRRGKNIPSGKTRFYTETADGNLIRADDGKGRLKQWTKEFTYKIILKKYDNQVTRGGDEGRGQFQRKIYTGFKGAGRLPFSIVTYSWHAGRPWNFVPPVTSRQTVRRPNWEKKSYEKVNMTSMPQMVSAYYEGFNIYSHCIVSFDEATAIMLGATPIDTNKLVIIIVAGPKISRNFPIFRLCSSVPLGYRQNGTFVIDLKRMGHCLLELRRDDNGIWNKPSGFSRFYKISENGDAIRVDKAGKLPAGMDYDVKIASKRYEHTQVQKNFVRKIYTAKGKNSESFPGSPEYAVIVYYWKGEPIQFEPAFKQNGVRTESKEYSRYQQIADEEQEFVEATGSMDPVVENLQKNLAPSPPPLLKRVTFPPEPQQSTSSTSAENLHELKLQLIRREMQNQDRFSAVLDRADGLLARMEQRFGVEHHHHIVHQEQEEEVWDHEQIIEEEEVIVQDTMEY”, the “soluble on expression in E. coli” value is on record as “not soluble”.

On to “MEQCNERPKVSVIIPVYNTCNYVQEALESICQQTLEELEIIVIDDGSTDCSRAIVEEIAIKDTRIQVYKQSNQGLSITRNQGLKFSTGEYIYFMDSDDFLEPDALELCYRKCTKEALDFVFFDAETFTIEPNIPESSFDYQRTLDLPEKICSGIDMLKTQLKTYKFKSSVCLNLFHREFICEERLSFYPGILHEDQLFMIQAYLHASKTGFIRRSFFHRRIRTNSIMTKKFTWKNMEGYLTVTNELLRELPIYPKTYHHTIFFFLRQMLDAAVWQAHTLSLPQRIKLFSLCLKYYRPYVTMRTLMVLLLKTSIHPRQ”, for which the “soluble on expression in E. coli” value was “soluble”.

Take “MEQEAERRRQPQIKQEPESEEEEEEKQEKEEKREEPVEEEEEPEQKPCLKPTLRPISSAPSVSSASGNATPNTPGDESPCGIIIPHENSPDQQQPEEHRPKIGLSLKLGASNSPGQPNSVKRKKLPVDSVFNKFEDEDSDDVPRKRKLVPLDYGEDDKNATKGTVNTEEKRKHIKSLIEKIPTAKPELFAYPLDWSIVDSILMERRIRPWINKKIIEYIGEEEATLVDFVCSKVMAHSSPQSILDDVAMVLDEEAEVFIVKMWRLLIYETEAKKIGLVK”: the “soluble on expression in E. coli” value was “soluble”.

As for “MERGQSLALQSNRNRPYMIRIIQPILRSERRRKLGREYFILHRKLSDCFSSIKWALPAKGDNSHGCSYPVMEHRSLIMRRLKDVDMYMQENKRTNLRLAISKLHGMIIRPGETFSVWRHVGRPTARKGYLEGLVLSQGKIGKGVGGGLCQLGNLLFWMFAHTPLSIVERHRHSFDVFPDINRSIPFGAGATLSYNYIDLRVSNNTPHTYRLELWLDDTHLNGRISSDTEQRDRYRIEETDHRIEHQSWGGYTRHNKLVRIVTRADGSEYTEPFVENHAIMMYNPLLSPPQNGASTSFQR”, the “soluble on expression in E. coli” value is recorded as “not soluble”.

For the sequence “MERGVDNWKVDCKCGTKDDDGERMLACDGCGVWHHTRCIGINNADALPSKFLCFRCIEL”, the “soluble on expression in E. coli” value is “soluble”.

On to “MERKISDEECPVRKSMQIFAGKWTLLIIFQINRRIIRYGELKRAIPGISEKMLIDELKFLCGKGLIKKKQYPEVPPRVEYSLTPLGEKVLPIIDEIAKFGMENL”, for which the “soluble on expression in E. coli” value was “soluble”.

(Values after the DeepSol protein solubility set.)
